A value given as a limit tells only on which side of the number the result lay.

The target in assay [1] is IL-17RA and IL-17RC co-expressed on 293F-IL-17RA-IL-17Rc-ACT1-NFκB-Luc cells (UniProt Q96F46). Kind of assay: flow cytometry; IL17A-His on 293F-IL-17RA-IL-17Rc-ACT1-NFκB-Luc cells, APC anti-His. (In general: A flow cytometer gives signals particle by particle.)
Another assay concerns the target T1, Biotin-IL-17A-His (human, UniProt Q16552 24-155, limits assumed, biotin (site not stated)).
T1 construct: also called 人IL-17A蛋白 (biotinylated)
T1 sequence: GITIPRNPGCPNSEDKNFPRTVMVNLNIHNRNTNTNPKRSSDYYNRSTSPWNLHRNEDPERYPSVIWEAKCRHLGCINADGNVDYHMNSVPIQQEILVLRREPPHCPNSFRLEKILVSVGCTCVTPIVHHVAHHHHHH
Briefly: ELISA; antibody coated at 2 ug/mL, Biotin-IL-17A-His titrated from 10 ug/mL (5-fold, 7 points), HRP-Streptavidin; the concentration is that of IL-17A. (An ELISA detects its analyte on a solid surface through an enzyme-linked reagent.)

On to “Human IL-17A重组蛋白 (C-terminal 6×His) (from UniProt Q16552 24-155) (ligand)”, for which the 阳性率 in assay [1] was greater than 90%.

B1: 阳性对照抗体Ixekizumab (antibody, human IgG4 S228P, kappa, V domains shown)
VH: QVQLVQSGAEVKKPGSSVKVSCKASGYSFTDYHIHWVRQAPGQGLEWMGVINPMYGTTDYNQRFKGRVTITADESTSTAYMELSSLRSEDTAVYYCARYDYFTGTGVYWGQGTLVTVSS
VL: DIVMTQTPLSLSVTPGQPASISCRSSRSLVHSRGNTYLHWYLQKPGQSPQLLIYKVSNRFIGVPDRFSGSGSGTDFTLKISRVEAEDVGVYYCSQSTHLPFTFGQGTKLEIKR
notes: also called 阳性抗体
For orientation: EC50 means the concentration giving half of the maximal effect. Low readings indicate greater potency, high ones weaker potency. As for B1, a half-maximal effect in the assay with Biotin-IL-17A-His (EC50) was put at 10.1 µg/mL.

Values taken from patent publication CN118206654A (BEILAI PHARMACEUTICAL CO LTD, dated 2024).
